The results in this text go back to paper PMC9295770 (Proceedings of the National Academy of Sciences of the …, 2022).

Usually stoichiometry N stands for a count of units in the complex or per binding partner.

Data set [1] concerns the target CD3ζL19A-GFP (L19A murine CD3ζ-GFP fusion protein), transgenic mouse thymocytes (mouse). Nature of the data set: immunoblot of whole lysates. Background: In western blotting, separated proteins are transferred to a membrane and probed.
Data set [2] deals with the molecule itself. In words: immunoblot of whole lysates.

Turning to “CD3ζL19A-GFP (L19A murine CD3ζ-GFP fusion protein), transgenic mouse thymocytes (natural protein)”, the stoichiometry N in data set [1] came to 2.

B1: CD3ζWT-GFP (wild-type murine CD3ζ-GFP fusion protein), transgenic mouse thymocytes (natural protein, UniProt P24161-1 22-164, looked up)
chain: QSFGLLDPKLCYLLDGILFIYGVIITALYLRAKFSRSAETAANLQDPNQLYNELNLGRREEYDVLEKKRARDPEMGGKQQRRRNPQEGVYNALQKDKMAEAYSEIGTKGERRRGKGHDGLYQGLSTATKDTYDALHMQTLAPR
B1: in data set [2], the “stoichiometry N” value amounted to 2.
